± gives the standard deviation.

Collision cross section data for 55 sequences are collected here from the supplement of paper PMC10598134.

This data set in a line: collision cross section of modified peptide (TIMS, N2, iRT-aligned); higher = larger / more extended gas-phase ion. A digest of the protocol: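 On a timsTOF Pro/HT (dda-PASEF, nitrogen, ~2.4 mbar), synthetic peptide pools were analysed after a 120-min nanoflow C18 separation at 60 °C and identified in MaxQuant. Three reference ions served for 1/K0 calibration, with run-wise alignment to the median iRT peptide deviation. Collision cross section comes from the Mason-Schamp equation, using the most abundant feature per charge state averaged over 1–3 technical replicates.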

[1] abbreviates: charge state: 2, modification: hydroxyisobutyryl.
[2] abbreviates: charge state: 2, modification: Acetyl (K).
Setting [3] is: charge state: 3, modification: Acetyl (K).
Where [4] appears, read: charge state: 2, modification: Biotin.
Where [5] appears, read: charge state: 2, modification: Butyryl.
Setting [6] is: charge state: 3, modification: Butyryl.
[7] abbreviates: charge state: 2, modification: Crotonyl.
The mark [8] stands for this setting: charge state: 3, modification: Crotonyl.
[9] abbreviates: charge state: 2, modification: Dimethyl (K).
[10] abbreviates: charge state: 3, modification: Dimethyl (K).
Where [11] appears, read: charge state: 2, modification: Formyl.
The mark [12] stands for this setting: charge state: 2, modification: Glutarylation.
[13] abbreviates: charge state: 3, modification: Glutarylation.
[14] abbreviates: charge state: 2, modification: GlyGly (K).
The mark [15] stands for this setting: charge state: 3, modification: GlyGly (K).
Setting [16] is: charge state: 2, modification: Malonyl.
Where [17] appears, read: charge state: 2, modification: Methyl (K).
Where [18] appears, read: charge state: 3, modification: Methyl (K).
[19] abbreviates: charge state: 3, modification: Propionyl.
[20] abbreviates: charge state: 2, modification: Succinyl.
[21] abbreviates: charge state: 3, modification: Succinyl.
Where [22] appears, read: charge state: 2, modification: Trimethyl (K).
Where [23] appears, read: charge state: 3, modification: Trimethyl (K).
The mark [24] stands for this setting: charge state: 3, modification: hydroxyisobutyryl.
Setting [25] is: charge state: 2, modification: HexNAc (ST).
Where [26] appears, read: charge state: 2, modification: Citrullination (R).
Setting [27] is: charge state: 3, modification: Methyl (R).
Where [28] appears, read: charge state: 3, modification: Citrullination (R).

“SNEEGSEEKGPEVR [_SNEEGSEEK(hydroxyisobutyryl)GPEVR_]” had a collision cross section under setting [1] of 409.53 ± 1.1 Å².

Take “SPASDTYIVFGEAK [_SPASDTY(Nitro (Y))IVFGEAK_]”: the collision cross section turned out to be 402.5 ± 0.55 Å² (charge state: 2, modification: Nitro (Y)) and 486.92 Å² (charge state: 3, modification: Nitro (Y)).

Sequence “SPASDTYIVFGEAK [_SPASDTY(Phospho (Y))IVFGEAK_]” came in with a collision cross section (charge state: 2, modification: Phospho (Y)) of 410.05 Å².

With SPDEAYAIAKK [_SPDEAYAIAK(Acetyl (K))K_], the collision cross section is listed as 369.21 ± 0.94 Å² under setting [2] and 447.3 ± 0.6 Å² under setting [3].

Regarding SPDEAYAIAKK [_SPDEAYAIAK(Biotin)K_], the collision cross section under setting [4] came out at 394.29 ± 1.1 Å².

As to SPDEAYAIAKK [_SPDEAYAIAK(Butyryl)K_], the collision cross section was 376.59 ± 1.2 Å² under setting [5] and 446.36 ± 0.47 Å² under setting [6].

Regarding SPDEAYAIAKK [_SPDEAYAIAK(Crotonyl)K_], the collision cross section is, setting by setting: under setting [7], 376.34 ± 0.8 Å²; under setting [8], 442.81 ± 1.6 Å².

Regarding “SPDEAYAIAKK [_SPDEAYAIAK(Dimethyl (K))K_]”, the collision cross section under setting [9] is 376.23 ± 0.37 Å² and the collision cross section under setting [10] stood at 437.31 ± 0.63 Å².

Regarding SPDEAYAIAKK [_SPDEAYAIAK(Formyl)K_], under setting [11], the collision cross section is listed as 364.33 ± 1 Å².

For “SPDEAYAIAKK [_SPDEAYAIAK(Gluratylation)K_]”, the collision cross section under setting [12] was 380.21 ± 0.73 Å² and the collision cross section under setting [13] was 455.46 ± 1.2 Å².

On to SPDEAYAIAKK [_SPDEAYAIAK(GlyGly (K))K_], for which the collision cross section under setting [14] is 383.65 ± 0.88 Å² and the collision cross section under setting [15] is 448.77 ± 3 Å².

Under setting [16], SPDEAYAIAKK [_SPDEAYAIAK(Malonyl)K_] gave a collision cross section of 371.15 ± 0.62 Å².

Turning to SPDEAYAIAKK [_SPDEAYAIAK(Methyl (K))K_], the collision cross section reads like this: under setting [17], 372.23 ± 0.47 Å²; under setting [18], 436.75 ± 4.3 Å².

The sequence SPDEAYAIAKK [_SPDEAYAIAK(Propionyl)K_] returned a collision cross section (charge state: 2, modification: Propionyl) of 373.53 ± 0.94 Å² and a collision cross section under setting [19] of 448.43 ± 0.74 Å².

In the case of SPDEAYAIAKK [_SPDEAYAIAK(Succinyl)K_], the collision cross section by setting is: under setting [20], 374.28 ± 0.24 Å²; under setting [21], 452.6 ± 2.6 Å².

In the case of “SPDEAYAIAKK [_SPDEAYAIAK(Trimethyl (K))K_]”, the collision cross section was found to be 381.12 ± 1.2 Å² under setting [22] and 449.09 Å² under setting [23].

“SPDEAYAIAKK [_SPDEAYAIAK(hydroxyisobutyryl)K_]”: the collision cross section by setting is: under setting [1], 377.18 ± 1.4 Å²; under setting [24], 453.4 ± 3.9 Å².

On to “SPPLPEHQKIPCNSAEPK [_SPPLPEHQK(Butyryl)IPCNSAEPK_]”, for which the collision cross section under setting [6] was 542.36 ± 2 Å².

The sequence “SPPLPEHQKIPCNSAEPK [_SPPLPEHQK(Gluratylation)IPCNSAEPK_]” came in with a collision cross section under setting [13] of 541.53 Å².

“SPPLPEHQKIPCNSAEPK [_SPPLPEHQK(GlyGly (K))IPCNSAEPK_]” showed a collision cross section under setting [15] of 516.26 Å².

For the sequence “SPPLPEHQKIPCNSAEPK [_SPPLPEHQK(Methyl (K))IPCNSAEPK_]”, the collision cross section under setting [18] worked out at 546.75 Å².

Under setting [21], “SPPLPEHQKIPCNSAEPK [_SPPLPEHQK(Succinyl)IPCNSAEPK_]” returned a collision cross section of 539.73 ± 2.2 Å².

Consider “SPPLPEHQKIPCNSAEPK [_SPPLPEHQK(hydroxyisobutyryl)IPCNSAEPK_]”, for which, under setting [24], the collision cross section was found to be 544.57 Å².

Turning to “SPSDSGYSYETIGKTTK [_SPSDSGYSYETIGK(Acetyl (K))TTK_]”, the collision cross section reads like this: under setting [2], 448.1 ± 2.3 Å²; under setting [3], 524.63 ± 0.47 Å².

As to “SPSDSGYSYETIGKTTK [_SPSDSGYSYETIGK(Butyryl)TTK_]”, the collision cross section by setting is: under setting [5], 455.62 ± 0.51 Å²; under setting [6], 527.5 ± 2.7 Å².

As to “SPSDSGYSYETIGKTTK [_SPSDSGYSYETIGK(Crotonyl)TTK_]”, the collision cross section under setting [7] is 455.39 ± 0.82 Å² and the collision cross section under setting [8] is listed as 528.2 ± 1.2 Å².

Take “SPSDSGYSYETIGKTTK [_SPSDSGYSYETIGK(Dimethyl (K))TTK_]”: the collision cross section is reported as 470.19 ± 1.3 Å² under setting [9] and 515.36 ± 1.6 Å² under setting [10].

On to “SPSDSGYSYETIGKTTK [_SPSDSGYSYETIGK(Formyl)TTK_]”, for which the collision cross section under setting [11] came to 446.06 ± 0.77 Å² and the collision cross section (charge state: 3, modification: Formyl) came out at 518.69 ± 1.8 Å².

Turning to “SPSDSGYSYETIGKTTK [_SPSDSGYSYETIGK(Gluratylation)TTK_]”, the collision cross section reads like this: under setting [12], 456.74 ± 1.5 Å²; under setting [13], 531.96 ± 0.12 Å².

Sequence “SPSDSGYSYETIGKTTK [_SPSDSGYSYETIGK(GlyGly (K))TTK_]” had a collision cross section under setting [14] of 483.23 ± 1.5 Å² and a collision cross section under setting [15] of 532.2 ± 3.5 Å².

Take “SPSDSGYSYETIGKTTK [_SPSDSGYSYETIGK(Malonyl)TTK_]”: the collision cross section turned out to be 450.66 ± 0.58 Å² under setting [16] and 526.41 Å² (charge state: 3, modification: Malonyl).

For the sequence “SPSDSGYSYETIGKTTK [_SPSDSGYSYETIGK(Methyl (K))TTK_]”, the collision cross section came to 466.86 ± 1.2 Å² under setting [17] and 512.24 ± 3.8 Å² under setting [18].

Regarding “SPSDSGYSYETIGKTTK [_SPSDSGYSYETIGK(Propionyl)TTK_]”, the collision cross section under setting [19] came out at 528.1 Å².

Turning to “SPSDSGYSYETIGKTTK [_SPSDSGYSYETIGK(Succinyl)TTK_]”, the collision cross section is on record as 453.06 ± 1.1 Å² under setting [20] and 530.11 ± 3 Å² under setting [21].

Regarding “SPSDSGYSYETIGKTTK [_SPSDSGYSYETIGK(Trimethyl (K))TTK_]”, the collision cross section runs as follows: under setting [22], 455.09 ± 0.58 Å²; under setting [23], 517.28 ± 2.4 Å².

As to “SPSDSGYSYETIGKTTK [_SPSDSGYSYETIGK(hydroxyisobutyryl)TTK_]”, the collision cross section reads like this: under setting [1], 457.69 ± 0.57 Å²; under setting [24], 538.76 ± 2.8 Å².

As to “SQAGASELGPFSDPR [_SQAGASELGPFS(HexNAc (ST))DPR_]”, the collision cross section under setting [25] amounted to 425.39 ± 1.3 Å².

As for SQLANTEPTK [_SQLANT(HexNAc (ST))EPTK_], the collision cross section under setting [25] was 372.78 ± 0.59 Å².

The sequence “SRFYSGFNSR [_SR(Citrullination (R))FYSGFNSR_]” gave a collision cross section under setting [26] of 364.39 ± 0.53 Å².

Sequence SRFYSGFNSR [_SR(Methyl (R))FYSGFNSR_] returned a collision cross section (charge state: 2, modification: Methyl (R)) of 375.99 ± 1.6 Å² and a collision cross section under setting [27] of 436.64 ± 3.4 Å².

As for “SRGAIISQYYNR [_SR(Citrullination (R))GAIISQYYNR_]”, the collision cross section by setting is: under setting [26], 408.9 ± 1.3 Å²; under setting [28], 483.76 Å².

In the case of “SRGAIISQYYNR [_SR(Methyl (R))GAIISQYYNR_]”, the collision cross section under setting [27] came to 476.32 ± 1.6 Å².

“SRGGGGNFGPGPGSNFR [_SR(Citrullination (R))GGGGNFGPGPGSNFR_]” returned a collision cross section under setting [28] of 461.31 ± 6.4 Å².

Turning to “SRGGGGNFGPGPGSNFR [_SR(Methyl (R))GGGGNFGPGPGSNFR_]”, the collision cross section under setting [27] stood at 461.66 ± 1.4 Å².

Turning to SSDLTDRVK [_S(HexNAc (ST))SDLTDRVK_], the collision cross section by setting is: under setting [25], 362.74 ± 0.12 Å²; (charge state: 3, modification: HexNAc (ST)) 449.63 ± 1.1 Å².

Turning to “SSFAYKDQNENR [_SSFAYK(Acetyl (K))DQNENR_]”, the collision cross section runs as follows: under setting [2], 398.41 ± 1.4 Å²; under setting [3], 457.8 ± 0.27 Å².

Regarding SSFAYKDQNENR [_SSFAYK(Biotin)DQNENR_], the collision cross section is given as 421.15 ± 1.9 Å² under setting [4] and 490.01 ± 0.34 Å² (charge state: 3, modification: Biotin).

Take SSFAYKDQNENR [_SSFAYK(Butyryl)DQNENR_]: the collision cross section reads like this: under setting [5], 402.63 ± 0.85 Å²; under setting [6], 462.59 ± 3.8 Å².

Regarding SSFAYKDQNENR [_SSFAYK(Crotonyl)DQNENR_], the collision cross section is given as 403.46 ± 0.27 Å² under setting [7] and 461.83 ± 1.6 Å² under setting [8].

Take “SSFAYKDQNENR [_SSFAYK(Dimethyl (K))DQNENR_]”: the collision cross section is, setting by setting: under setting [9], 406.82 ± 0.47 Å²; under setting [10], 455.28 ± 0.51 Å².

For the sequence SSFAYKDQNENR [_SSFAYK(Formyl)DQNENR_], the collision cross section under setting [11] is on record as 394.76 ± 0.75 Å².

On to “SSFAYKDQNENR [_SSFAYK(Gluratylation)DQNENR_]”, for which the collision cross section runs as follows: under setting [12], 404.81 ± 0.5 Å²; under setting [13], 472.81 ± 1.2 Å².

For “SSFAYKDQNENR [_SSFAYK(GlyGly (K))DQNENR_]”, the collision cross section was determined as 412.56 ± 1.4 Å² under setting [14] and 465.62 ± 2 Å² under setting [15].

The sequence SSFAYKDQNENR [_SSFAYK(Malonyl)DQNENR_] had a collision cross section under setting [16] of 401.56 ± 0.03 Å².

As for “SSFAYKDQNENR [_SSFAYK(Methyl (K))DQNENR_]”, the collision cross section worked out at 422.28 ± 0.64 Å² under setting [17] and 455.52 ± 4 Å² under setting [18].
